These sequences were tested on Escherichia coli TOP10 (assay: shrunken log2 fold change of peptide-encoding DNA abundance (4.5 h post-induction vs induction); higher = less antimicrobial activity (less host growth inhibition)). Conditions: time post-induction: 4.5 h; library: site-saturation at positions 5, 18, 19, 20.
With RRIRKRPPRLPRPRPRPHGAPRP the “shrunken log2 fold change” value was 0.594. RRIRCRPPRLPRPRPRPDLTPRP was tested, and the “shrunken log2 fold change” value was -0.275. With RRIRDRPPRLPRPRPRPLMQPRP the “shrunken log2 fold change” value was 0.823. In the case of RRIRARPPRLPRPRPRPMKMPRP, the “shrunken log2 fold change” value is reported as 0.0994. In the case of RRIRHRPPRLPRPRPRPMANPRP, the “shrunken log2 fold change” value is reported as -0.0536. With RRIRCRPPRLPRPRPRPTFIPRP the “shrunken log2 fold change” value was -0.307. RRIRYRPPRLPRPRPRPVGLPRP was tested, and the “shrunken log2 fold change” value was 0.158. In the case of RRIRLRPPRLPRPRPRPFRGPRP, the “shrunken log2 fold change” value is reported as -0.0479. With RRIRQRPPRLPRPRPRPVPYPRP the “shrunken log2 fold change” value was -0.363. With RRIRTRPPRLPRPRPRPANTPRP the “shrunken log2 fold change” value was -0.181. In the case of RRIRPRPPRLPRPRPRPEFCPRP, the “shrunken log2 fold change” value is reported as 0.18. With RRIRQRPPRLPRPRPRPDYYPRP the “shrunken log2 fold change” value was -0.0251. RRIRKRPPRLPRPRPRPCIPPRP was tested, and the “shrunken log2 fold change” value was -0.0433. In the case of RRIRIRPPRLPRPRPRPQCRPRP, the “shrunken log2 fold change” value is reported as -0.0364. In the case of RRIRNRPPRLPRPRPRPWCIPRP, the “shrunken log2 fold change” value is reported as -0.573. In the case of RRIRCRPPRLPRPRPRPSREPRP, the “shrunken log2 fold change” value is reported as -0.184. RRIRWRPPRLPRPRPRPKLPPRP was tested, and the “shrunken log2 fold change” value was 0.247. In the case of RRIRLRPPRLPRPRPRPKTGPRP, the “shrunken log2 fold change” value is reported as 0.25. For RRIRRRPPRLPRPRPRPWVEPRP, the “shrunken log2 fold change” value was 0.0269. In the case of RRIRKRPPRLPRPRPRPRGRPRP, the “shrunken log2 fold change” value is reported as 1.04. With RRIRSRPPRLPRPRPRPWCVPRP the “shrunken log2 fold change” value was -0.22. RRIRYRPPRLPRPRPRPKCYPRP was tested, and the “shrunken log2 fold change” value was -0.112. For RRIRNRPPRLPRPRPRPDCWPRP, the “shrunken log2 fold change” value was -0.0568. For RRIRARPPRLPRPRPRPFTMPRP, the “shrunken log2 fold change” value was -0.378. In the case of RRIRRRPPRLPRPRPRPSNSPRP, the “shrunken log2 fold change” value is reported as -0.108. RRIRIRPPRLPRPRPRPSSEPRP was tested, and the “shrunken log2 fold change” value was -0.299. In the case of RRIRFRPPRLPRPRPRPHHVPRP, the “shrunken log2 fold change” value is reported as -0.323. With RRIRSRPPRLPRPRPRPMVLPRP the “shrunken log2 fold change” value was 0.114. With RRIRGRPPRLPRPRPRPKNDPRP the “shrunken log2 fold change” value was 0.698. In the case of RRIRYRPPRLPRPRPRPCMFPRP, the “shrunken log2 fold change” value is reported as -0.981. In the case of RRIRPRPPRLPRPRPRPMDEPRP, the “shrunken log2 fold change” value is reported as 0.119. In the case of RRIRIRPPRLPRPRPRPAMFPRP, the “shrunken log2 fold change” value is reported as -0.45. In the case of RRIRKRPPRLPRPRPRPVPNPRP, the “shrunken log2 fold change” value is reported as -0.00404. With RRIRTRPPRLPRPRPRPKHCPRP the “shrunken log2 fold change” value was -0.0769. In the case of RRIRERPPRLPRPRPRPDQCPRP, the “shrunken log2 fold change” value is reported as -0.308. For RRIRERPPRLPRPRPRPYYGPRP, the “shrunken log2 fold change” value was -0.127. RRIRARPPRLPRPRPRPWICPRP was tested, and the “shrunken log2 fold change” value was -0.0278. RRIRKRPPRLPRPRPRPLHVPRP was tested, and the “shrunken log2 fold change” value was 0.0446. With RRIRYRPPRLPRPRPRPGSTPRP the “shrunken log2 fold change” value was -0.0367. For RRIRVRPPRLPRPRPRPDWNPRP, the “shrunken log2 fold change” value was -0.343. For RRIRARPPRLPRPRPRPEAHPRP, the “shrunken log2 fold change” value was 0.0341. In the case of RRIRERPPRLPRPRPRPPGAPRP, the “shrunken log2 fold change” value is reported as 0.573. With RRIRRRPPRLPRPRPRPQQKPRP the “shrunken log2 fold change” value was 0.011. With RRIRNRPPRLPRPRPRPASMPRP the “shrunken log2 fold change” value was -0.064. RRIRPRPPRLPRPRPRPVFFPRP was tested, and the “shrunken log2 fold change” value was 0.213. With RRIRSRPPRLPRPRPRPEVHPRP the “shrunken log2 fold change” value was 0.0346. With RRIRIRPPRLPRPRPRPHMMPRP the “shrunken log2 fold change” value was -1.37. For RRIRTRPPRLPRPRPRPSDMPRP, the “shrunken log2 fold change” value was 0.185. With RRIRERPPRLPRPRPRPNVNPRP the “shrunken log2 fold change” value was -0.34. With RRIRPRPPRLPRPRPRPMYPPRP the “shrunken log2 fold change” value was -0.135. For RRIRMRPPRLPRPRPRPLAHPRP, the “shrunken log2 fold change” value was 0.0417. With RRIRKRPPRLPRPRPRPISCPRP the “shrunken log2 fold change” value was 0.0993. With RRIRERPPRLPRPRPRPGRDPRP the “shrunken log2 fold change” value was 0.419. For RRIRLRPPRLPRPRPRPAGVPRP, the “shrunken log2 fold change” value was 0.103. In the case of RRIRTRPPRLPRPRPRPLGVPRP, the “shrunken log2 fold change” value is reported as -0.194. In the case of RRIRQRPPRLPRPRPRPAIKPRP, the “shrunken log2 fold change” value is reported as -0.316. In the case of RRIRGRPPRLPRPRPRPQVMPRP, the “shrunken log2 fold change” value is reported as 0.532. For RRIRNRPPRLPRPRPRPTKYPRP, the “shrunken log2 fold change” value was -0.564. RRIRMRPPRLPRPRPRPCAYPRP was tested, and the “shrunken log2 fold change” value was 0.227. RRIRMRPPRLPRPRPRPEWSPRP was tested, and the “shrunken log2 fold change” value was 0.721.

Source: the supplement of paper PMC9112550, “Optimization of the antimicrobial peptide Bac7 by deep mutational scanning” (BMC Biology, 2022)
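Also: peptides expressed intracellularly from a pBAD plasmid library in pooled LB shake-flask culture, induced with 0.3% L-arabinose, DNA abundance read by NGS, three biological replicates, DESeq2 with apeglm shrinkage.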
